Measurements from US20240102068A1, “C-GLYCOSYLTRANSFERASE VARIANTS AND USE THEREOF” (KOREA ADVANCED INSTITUTE OF SCIENCE AND TECHNOLOGY, priority 2021, published 2024).
Numbering of substitutions follows the chain as printed. Numbers in names are those of the source.

What was measured:
[1] = target: T1, Gentiana triflora GtCGT (GtUF6CGT1) variant V93Q/Y193F, SEQ ID NO: 61 (Gentiana triflora, UniProt A0A0B6VIJ5, V93Q/Y193F); assay: enzyme kinetics of purified N-terminal 6xHis GtCGT V93Q/Y193F, FK to dcII, UDP-Glo Glycosyltransferase Assay; format: biochemical
T1 sequence (A0A0B6VIJ5 1-477 V93Q/Y193F): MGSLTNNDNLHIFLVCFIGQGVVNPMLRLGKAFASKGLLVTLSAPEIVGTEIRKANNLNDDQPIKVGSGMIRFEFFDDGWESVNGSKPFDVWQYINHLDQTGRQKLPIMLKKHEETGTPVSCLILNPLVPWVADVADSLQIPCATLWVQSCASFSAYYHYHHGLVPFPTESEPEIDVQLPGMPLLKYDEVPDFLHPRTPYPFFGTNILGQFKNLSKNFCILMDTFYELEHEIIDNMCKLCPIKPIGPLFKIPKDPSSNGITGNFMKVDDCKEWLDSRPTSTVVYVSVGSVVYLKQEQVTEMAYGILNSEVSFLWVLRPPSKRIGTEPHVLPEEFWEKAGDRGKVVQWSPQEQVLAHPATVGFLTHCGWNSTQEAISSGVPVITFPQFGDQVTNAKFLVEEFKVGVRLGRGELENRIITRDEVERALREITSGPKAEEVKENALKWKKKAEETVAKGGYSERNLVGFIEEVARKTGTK
Protocol: Each plasmid was constructed by PCR amplification of pCDF-GtCGT and pCDF-GtCGTmut using GtCGT_N_His_IV_F and GtCGT_N_His_IV_R primers, followed by blunt-end ligation through DpnI treatment and T4 PNK and T4 ligase treatment. Each of the two plasmids thus constructed was transformed into the E. coli BL21(DE3) strain, followed by seed culture in a test tube containing 10 mL of LB and then culture at 37° C. until OD600 reached 0.8 in a flask containing 500 mL of LB. After treatment with 1 mM IPTG for enzyme expression, additional culture was carried out at 20° C. for 16 hours, and cells were collected by centrifugation and then resuspended in 30 mL of lysis buffer (50 mM NaH2PO4, 0.3 M NaCl, 10 mM imidazole, pH 7.5). The cells were disrupted by ultrasonication and then centrifuged at 10,000 rpm and 4° C. for 40 minutes to obtain a supernatant containing water-soluble proteins. […]
Here, a UDP-Glo Glycosyltransferase Assay Kit (Promega) was used to determine the extent of reaction. Since this kit enables measurement of free UDP generated as a reaction byproduct by luminescence, 200 μL of an enzyme reaction solution containing 0.1 μM enzyme and various concentrations of FK (50 mM HEPES, 0.1 mM UDP-glucose, 5 mM MgCl2, pH 7.5) was allowed to react at 25° C. for 1 hour, 25 μL thereof was taken out, and the amount of emitted light was measured using the kit.

enzyme kinetics of DnrF = substrate: Cc1c(C(=O)O)c(O)cc2c1C(=O)c1c(O)cc(O)cc1C2=O; assay: enzyme kinetics of DnrF; format: biochemical, Streptomyces peucetius; conditions: other: means ± SD, n = 3
[2] = substrate: Cc1c(C(=O)O)c(O)cc2c1C(=O)c1c(O)cc(O)cc1C2=O; assay: enzyme kinetics of DnrF P217K; format: biochemical, Streptomyces peucetius; conditions: other: means ± SD, n = 3

Cc1c(C(=O)O)c(O)cc2c1C(=O)c1c(O)cc(O)cc1C2=O [FK, flavokermesic acid]
KM value decreased compared to GtCGT ([1]; decrease vs wild-type GtCGT): 19.5%
Vmax value increased compared to GtCGT ([1]; increase vs wild-type GtCGT): 18.2%

B1: Streptomyces peucetius DnrF (aklavinone 12-hydroxylase), wild type, SEQ ID NO: 2 (Streptomyces peucetius) (protein)
chain: MALTKPDVDVLVVGGGLGGLSTALFLARRGARVLLVERHASTSVLPKAAGQNPRTMELFRFGGVADEILATDDIRGAQGDFTIKVVERVGGRVLHSFAESFEELVGATEQCTPMPWALAPQDRVEPVLVAHAAKHGAEIRFATELTSFQAGDDGVTARLRDLGTGAESTVSARYLVAADGPRSAIRESLGITRHGHGTLAHFMGVIFEADLTAVVPPGSTGWYYLQHPDFTGTFGPTDRPNRHTFYVRYDPERGERPEDYTPQRCTELIRLAVDAPGLVPDILDIQAWDMAAYIADRWREGPVLLVGDAAKVTPPTGGMGGNTAIGDGFDVAWKLAAVLRGEAGERLLDSYGAERSLVSRLVVDESLAIYAQRMAPHLLGSVPEERGTAQVVLGFRYRSTAVAAEDDDPEPTEDPRRPSGRPGFRAPHVWIEQDGTRRSTVELFGDCWVLLAAPEGGAWGQAAARAAADLGVRLDVHLVGRDVAAPSGELTRTYGIGRAGASLVRPDGVVAWRTAVAPGAEAQDQLSTLLTRLLAR
notes: purification details not in the excerpts
Km (enzyme kinetics of DnrF): 56.75 ± 4.68 µM
Vmax (enzyme kinetics of DnrF): 0.99 µM/min
Vmax/Km (enzyme kinetics of DnrF): 0.0175 min⁻¹

B2: Streptomyces peucetius DnrF (aklavinone 12-hydroxylase, SEQ ID NO: 2) variant P217K (Streptomyces peucetius; P217K) (protein)
chain: B1 chain with M1V, P217K
notes: as for B1
Km [2]: 43.31 ± 2.64 µM
Vmax [2]: 1.01 µM/min
Vmax/Km [2]: 0.0234 min⁻¹
